B1: N08 (ssDNA)
DNA: TAACCACATAACCGCAAGACCACACGCACGAAAACAATTGACATGAAATTTACGGCTCTTATTGTGCTACTCTCCTCGT
B2: N06 (ssDNA)
DNA: TAACCACATAACCGCAAGATCCCGATAGACCCGCGTCTCATGTACCTTACATGCTACGATATTGTGCTACTCTCCTCGT
B3: N11 (ssDNA)
DNA: TAACCACATAACCGCAAGACGACGCGATACAAAACACTACTAATCTCTCGTCGCACTAGTATTGTGCTACTCTCCTCGT
B4: SS20 (ssDNA)
DNA: TAACCACATAACCGCAAGACGAACACCGATGCCGCGCACAATCGTGTAAACGGATGTCCTATTGTGCTACTCTCCTCGT
B5: SS48 (ssDNA)
DNA: TAACCACATAACCGCAAGACGACGACACAAAAGCATTTCGGCAATCCGACAGTGGTCCATATTGTGCTACTCTCCTCGT
B6: SS10 (ssDNA)
DNA: TAACCACATAACCGCAAGACGCACGCAAAACTTTCAGTAATCCTAAGATGCCATGTTACTATTGTGCTACTCTCCTCGT
B7: SS04 (ssDNA)
DNA: TAACCACATAACCGCAAGACGAACGAACCATATAACGCGTAGTAACATCCAAGGCGCCCTATTGTGCTACTCTCCTCGT
B8: SS18 (ssDNA)
DNA: TAACCACATAACCGCAAGACCAGCAGAAAACTCAACATAAGCAGCAGTTCGGGCGCTACTATTGTGCTACTCTCCTCGT
B9: SS12 (ssDNA)
DNA: TAACCACATAACCGCAAGACGATGGCCGCAACCGAGAAACTATGACGATGGATCACGGCTATTGTGCTACTCTCCTCGT

target: SARS-CoV-2 nucleocapsid protein (SARS-CoV-2, UniProt P0DTC9 P0DTC9:1-419)

For B1, which Kd is on record?
Its Kd is 18.7 nM.

How did the Kd turn out when B2 was run?
The Kd was 25.1 nM.

Which Kd does the source give for B3 here?
The Kd was 29.6 nM.

target: SARS-CoV-2 spike protein (S1/S2 complex) (SARS-CoV-2, UniProt P0DTC2 P0DTC2:14-1213)

Does B4 bind?
Result: binds

Does B5 bind?
Result: binds

Does B6 bind?
Result: binds

Does B7 bind?
Result: binds

Does B8 bind?
Result: binds

Does B9 bind?
Result: binds
